Data on 1 molecule can be found in patent publication CN114044821A (INST MILITARY MEDICINE ACADEMY MILITARY SCIENCES PLA, dated 2022).

For one experiment, the target named is Gamma株刺突蛋白(S蛋白)，在假病毒表面 (SARS-CoV-2 Gamma株 (P.1)). Nature of the experiment: cell-based or functional assay.
The target in experiment [1] is Beta株刺突蛋白(S蛋白)，在假病毒/真病毒表面 (SARS-CoV-2 Beta株 (B.1.351)). The experiment in a line: cell-based or functional assay.
Experiment [2] deals with Delta株刺突蛋白(S蛋白)，在假病毒/真病毒表面 (SARS-CoV-2 Delta株 (B.1.617.2)). Nature of the experiment: cell-based or functional assay.
A further experiment concerns the target Alpha株刺突蛋白(S蛋白)，在假病毒表面 (SARS-CoV-2 Alpha株 (B.1.1.7)). Nature of the experiment: cell-based or functional assay.
The target of another experiment is Omicron株刺突蛋白(S蛋白)，在假病毒表面 (SARS-CoV-2 Omicron株 (B.1.1.529)). Nature of the experiment: cell-based or functional assay.
Another experiment deals with SARS-CoV-2 WT S-ECD蛋白 (SARS-CoV-2, UniProt P0DTC2 14-1213).

B1: 抗SARS-CoV-2全人源单克隆抗体ZWC12 (antibody, V domains shown)
VH: EVQLVESGGALVQPGGSLRLSCAASGFTFANYAMSWVRQAPGKGLEWVSSMTGSSIDSYYADSVKGRFTISRDNSRNTLYLQMNSLRAEDTAVYYCAKGELLWFGDLLHNWFDPWGRGTLVTVSS
VL: DIVMTQSPATLSVSPGERATLSCRASQSVSTNLAWYQQKPGQAPRLLIHGASTRATGLPARFSGSGSGTEFTLTISSLQSEDFAVYFCQQYDSWPGTFGPGTKVDIKR
With B1, the “假病毒中和 EC50 (luciferase, HEK293T)” value with Gamma株刺突蛋白(S蛋白)，在假病毒表面 is 0.136 µg/mL; in experiment [1] it was 0.162 µg/mL; in experiment [2], 0.411 µg/mL; in the experiment with Alpha株刺突蛋白(S蛋白)，在假病毒表面 it was 0.124 µg/mL; with Omicron株刺突蛋白(S蛋白)，在假病毒表面, 0.093 µg/mL. In addition, the results for the “真病毒中和 EC50 (Vero E6, crystal violet)” value in experiment [1] and in experiment [2] were 721 µg/mL and 7.97 µg/mL, respectively. In the experiment with SARS-CoV-2 WT S-ECD蛋白, the Kd (in general, a measure of binding affinity in units of concentration) worked out at 1.75 nM.
